Results as given in the DeepSol protein solubility set.

Assay: soluble on expression in E. coli; label from the status in PepcDB or PDB records

Sequence | soluble on expression in E. coli
GSHMLEFSEWYSDILEKAEIYDVRYPIKGCGVYLPYGFKIRRYTFEIIRNLLDESGHDEALFPMLIPEDLLAKEAEHIKGFEDEVYWVTHGGKTQLDVKLALRPTSETPIYYMMKLWVKVHTDLPIKIYQIVNTFRYETKHTRPLIRLREIMTFKEAHTAHSTKEEAENQVKEAISIYKKFFDTLGIPYLISKRPEWDKFPGAEYTMAFDTIFPDGRTMQIATVHNLGQNFSKTFEIIFETPTGDKDYAYQTCYGISDRVIASIIAIHGDEKGLILPPIVAPIQVVIVPLIFKGKEDIVMEKAKEIYEKLKGKFRVHIDDRDIRPGRKFNDWEIKGVPLRIEVGPKDIENKKITLFRRDTMEKFQVDETQLMEVVEKTLNNIMENIKNRAWEKFENFITILEDINPDEIKNILSEKRGVILVPFKEEIYNEELEEKVEATILGETEYKGNKYIAIAKTY | soluble
GSHMSLFDFFKNKGSAATATDRLKLILAKERTLNLPYMEEMRKEIIAVIQKYTKSSDIHFKTLDSNQSVETIEVEIILPR | soluble
GSHMSLSNKLTLDKLDVKGKRVVMRVDFNVPMKNNQITNNQRIKAAVPSIKFCLDNGAKSVVLMSHLGRPDGVPMPDKYSLEPVAVELKSLLGKDVLFLKDCVGPEVEKACANPAAGSVILLENLRFHVEEEGKGKDASGNKVKAEPAKIEAFRASLSKLGDVYVNDAFGTAHRAHSSMVGVNLPQKAGGFLMKKELNYFAKALESPERPFLAILGGAKVADKIQLINNMLDKVNEMIIGGGMAFTFLKVLNNMEIGTSLFDEEGAKIVKDLMSKAEKNGVKITLPVDFVTADKFDENAKTGQATVASGIPAGWMGLDCGPESSKKYAEAVTRAKQIVWNGPVGVFEWEAFARGTKALMDEVVKATSRGCITIIGGGDTATCCAKWNTEDKVSHVSTGGGASLELLEGKVLPGVDALSNI | soluble
GSHMSSPVNEEENSQRISTLHHQTMPSDLTQDEFTQLSQSIAEFHTYQLGNGRCSSLLAQRIHAPPETVWSVVRRFDRPQIYKHFIKSCNVSEDFEMRVGCTRDVNVISGLPANTSRERLDLLDDDRRVTGFSITGGEHRLRNYKSVTTVHRFEKEEEEERIWTVVLESYVVDVPEGNSEEDTRLFADTVIRLNLQKLASITEAMNRN | soluble
GSKPVSEKIMEIKLIKGPKGLGFSIAGGVGNQHWPGDNSIYVTKIIEGGAAHKDGKLQIGDKLLAVNNVALEEVTHEEAVTALKNTSDFVYLKVAKPTS | soluble
GSLTTISSILSLKREKPDNLAIILQIDFTKLKEEDSLIVVYNSLKALTIKFARLQFCFVDRNNYVLDYGSVLHKIDSLDSISNLKSKSSSTQFSPIWLKNTLYPENIHEHLGIVAVSNSNMEAKKSILFQDYRCFTSFGRRRPNELKIKVGYLNVDYSDKIDELVEASSWTFVLETLCYSFGLSFDEHDDDDEEDN | soluble
GSMETSMPEYYEVFGEFRGVLMDKRFTKYWEDVEMFLARPDDLVIATYPKSGTTWISEVVYMIYKEGDVEKCKEDAIFNRIPYLECRNEDLINGIKQLKEKESPRIVKTHLPPKLLPASFWEKNCKMIYLCRNAKDVAVSYYYFLLMITSYPNPKSFSEFVEKFMQGQVPYGSWYDHVKAWWEKSKNSRVLFMFYEDMKEDIRREVVKLIEFLERKPSAELVDRIIQHTSFQEMKNNPSTNYTMMPEEMMNQKVSPFMRKGIIGDWKNHFPEALRERFDEHYKQQMKDCTVKFRMEL | soluble
GSMKTIKVKNKTEGSKVAFRMLEEEITFGAKTLGLATGSTPLELYKEIRESHLDFSDMVSINLDEYVGLSADDKQSYAYFMKQNLFAAKPFKKSYLPNGLAADLAKETEYYDQILAQYPIDLQILGIGRNAHIGFNEPGTAFSSQTHLVDLTPSTIAANSRFFEKAEDVPKQAISMGLASIMSAKMILLMAFGEEKAEAVAAMVKGPVTEEIPASILQTHPKVILIVDEKAGAGI | soluble
GSMPAIMTMLADHAARQLLDFSQKLDINLLDNVVNCLYHGEGAQQRMAQEVLTHLKEHPDAWTRVDTILEFSQNMNTKYYGLQILENVIKTRWKILPRNQCEGIKKYVVGLIIKTSSDPTCVEKEKVYIGKLNMILVQILKQEWPKHWPTFISDIVGASRTSESLCQNNMVILKLLSEEVFDFSSGQITQVKAKHLKDSMCNEFSQIFQLCQFVMENSQNAPLVHATLETLLRFLNWIPLGYIFETKLISTLIYKFLNVPMFRNVSLKCLTEIAGVSVSQYEEQFETLFTLTMMQLKQMLPLNTNIRLAYSNGKDDEQNFIQNLSLFLCTFLKEHGQLLEKRLNLREALMEALHYMLLVSEVEETEIFKICLEYWNHLAAELYRESPFSTSASPLLSGSQHFDIPPRRQLYLTVLSKVRLLMVSRMAKPEEVLVVENDQGEVVREFMKDTDSINLYKNMRETLVYLTHLDYVDTEIIMTKKLQNQVNGTEWSWKNLNTLCWAIGSISGAMHEEDEKRFLVTVIKDLLGLCEQKRGKDNKAIIASNIMYIVGQYPRFLRAHWKFLKTVVNKLFEFMHETHDGVQDMACDTFIKIAQKCRRHFVQVQVGEVMPFIDEILNNINTIICDLQPQQVHTFYEAVGYMIGAQTDQTVQEHLIEKYMLLPNQVWDSIIQQATKNVDILKDPETVKQLGSILKTNVRACKAVGHPFVIQLGRIYLDMLNVYKCLSENISAAIQANGEMVTKQPLIRSMRTVKRETLKLISGWVSRSNDPQMVAENFVPPLLDAVLIDYQRNVPAAREPEVLSTMAIIVNKLGGHITAEIPQIFDAVFECTLNMINKDFEEYPEHRTNFFLLLQAVNSHCFPAFLAIPPAQFKLVLDSIIWAFKHTMRNVADTGLQILFTLLQNVAQEEAAAQSFYQTYFCDILQHIFSVVTDTSHTAGLTMHASILAYMFNLVEEGKISTPLNPGNPVNNQMFIQDYVANLLKSAFPHLQDAQVKLFVTGLFSLNQDIPAFKEHLRDFLVQIKEFAGEDTSDLFLEERETALRQAQEEKHKLQMSVPGILNPHEIPEEMCD | soluble
GSPGISGGGGGILDMADDDVLFEDVYELCEVIGKGAFSVVRRCINRETGQQFAVKIVDVAKFTSSPGLSTEDLKREASICHMLKHPHIVELLETYSSDGMLYMVFEFMDGADLCFEIVKRADAGFVYSEAVASHYMRQILEALRYCHDNNIIHRDVKPENVLLASKENSAPVKLGDFGVAIQLGESGLVAGGRVGTPHFMAPEVVKREPYGKPVDVWGCGVILFILLSGCLPFYGTKERLFEGIIKGKYKMNPRQWSHISESAKDLVRRMLMLDPAERITVYEALNHPWLKERDRYAYKIHLPETVEQLRKFNARRKLKGAVLAAVSSHKFNSFYGDPPEELPDFSEDPTS | soluble
GSSALLDTDEVGSELDDSDDDYLISEGEEDGPDENLMLCLYDKVTRTKARWKCSLKDGVVTINRNDYTFQKAQVEAEWV | soluble
GSSCGNDESDPDSTVTIAMATVEKQPQYDAPYLVLDNGEKLWVVQHIVPYRDLKAGERIFGNYSFLEAGESGFAYNIRLNDYTLVPVQKIIGLNPDNMDSIGNMKVQIKDMWPSDDYLNVRFMLNFPSPQKPILNLVVNEMIPWTKDGYAHLELRYNNNGSQGRLVPGMVSFKLDDYSPENSELKGIKVLVNPVDGEEKTYIFSYPLTGEDVPGFNPLDLAELK | soluble
GSSEEESFFVQVHDVSPEQPRTVIKAPRVSTAQDVIQQTLCKAKYSLSILSNPNPSDYVLLEEVVKDTTNKKTTTPKSSQRVLLDQECVFQAQSKWKGAGKFILKLKEQVQASREDK | soluble
GSSGSSGMQLEIQVALNFIISYLYNKLPRRRVNIFGEELERLLKKKYEGHWYPEKPYKGSGFRCIHIGEKVDPVIEQASKESGLDIDDVRGNLPQDLSVWIDPFEVSYQIGEKGPVKVLYVDDNSGPSSG | soluble
GSTDSLPGKFEDMYKLTSELLGEGAYAKVQGAVSLQNGKEYAVKIIEKQAGHSRSRVFREVETLYQCQGNKNILELIEFFEDDTRFYLVFEKLQGGSILAHIQKQKHFNEREASRVVRDVAAALDFLHTKGIAHRDLKPENILCESPEKVSPVKICDFDLGSGMKLNNSCTPITTPELTTPCGSAEYMAPEVVEVFTDQATFYDKRCDLWSLGVVLYIMLSGYPPFVGHCGADCGWDRGEVCRVCQNKLFESIQEGKYEFPDKDWAHISSEAKDLISKLLVRDAKQRLSAAQVLQHPWVQGQAPEKG | soluble
GVTYLLAKRKILYFEAVESKIFVYTEKDVYETTWKLYELEEKFKDSSFFRCSKSMILNIEWIEKIAPGFHGKFEASLFNREKVIISRQYAKILKQKLNLGGKGK | not soluble
